Five molecules from patent US20260015426A1 (23ANDME, published 2026) can be followed below.

Broadly, the koff is the rate constant with which the complex falls apart. One may read the kon as a measure of how fast the partners come together.

For assay [1], the target named is T1, biotinylated cyno FcRn (Acro biosystems, catalogue number FCM-C5284) (cynomolgus monkey, UniProt Q8SPV9 24-297; Q8SPW0 21-119, limits assumed, biotinylated).
T1 construct: Bought reagent
The assay can be described thus: SPR steady state, FcRn captured, 25 C, pH 6.0; pH 6.0.

The target of assay [2] is T2, biotinylated human FcRn (Acro biosystems, catalogue number FCN-H52W7) (human, UniProt P55899 24-297; P61769 21-119, biotinylated).
T2 construct: Bought reagent; also called hu-FcRn
T2 sequence (P55899 24-297 limits assumed, chain 1 of 2): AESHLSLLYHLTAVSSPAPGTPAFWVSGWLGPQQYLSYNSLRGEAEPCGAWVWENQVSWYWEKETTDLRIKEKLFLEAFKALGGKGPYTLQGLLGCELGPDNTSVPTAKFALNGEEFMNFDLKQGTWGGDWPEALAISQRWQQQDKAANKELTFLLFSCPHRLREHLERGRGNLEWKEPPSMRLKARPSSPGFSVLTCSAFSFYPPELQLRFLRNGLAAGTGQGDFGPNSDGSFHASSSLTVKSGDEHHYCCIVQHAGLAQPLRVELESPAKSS
T2 sequence (P61769 21-119 limits assumed, chain 2 of 2): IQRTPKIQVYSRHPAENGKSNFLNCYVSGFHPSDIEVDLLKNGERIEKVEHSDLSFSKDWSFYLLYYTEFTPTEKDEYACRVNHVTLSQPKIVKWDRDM
Described as above.

The target of assay [3] is T3, cyno-M-IL1RAP construct, positions S21-T367 (cynomolgus monkey, UniProt P59822 21-367 (rhesus entry)).
T3 construct: Biotinylated when captured on the Biacore chip; also called cy-M-IL1RAP
T3 sequence: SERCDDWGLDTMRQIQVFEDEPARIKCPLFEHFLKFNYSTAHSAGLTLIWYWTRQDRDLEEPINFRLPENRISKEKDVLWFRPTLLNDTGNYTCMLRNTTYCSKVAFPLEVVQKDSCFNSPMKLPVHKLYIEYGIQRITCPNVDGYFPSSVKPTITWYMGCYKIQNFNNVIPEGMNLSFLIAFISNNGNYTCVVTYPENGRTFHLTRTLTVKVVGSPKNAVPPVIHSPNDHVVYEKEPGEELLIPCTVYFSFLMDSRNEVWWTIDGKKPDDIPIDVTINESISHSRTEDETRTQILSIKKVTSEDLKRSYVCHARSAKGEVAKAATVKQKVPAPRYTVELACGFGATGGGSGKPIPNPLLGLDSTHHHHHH
The assay can be described thus: SPR, IgG analyte (apparent), pH 7.4, 37 C. For orientation: SPR reads the build-up and loss of mass on a sensor chip optically.

Assay [4] concerns the target T4, hu-M-IL1RAP construct, positions S21-T367 (extracellular domain of the membrane form of human IL1RAP) (human, UniProt Q9NPH3 21-367).
T4 construct: Biotinylated when captured on the Biacore chip
T4 sequence: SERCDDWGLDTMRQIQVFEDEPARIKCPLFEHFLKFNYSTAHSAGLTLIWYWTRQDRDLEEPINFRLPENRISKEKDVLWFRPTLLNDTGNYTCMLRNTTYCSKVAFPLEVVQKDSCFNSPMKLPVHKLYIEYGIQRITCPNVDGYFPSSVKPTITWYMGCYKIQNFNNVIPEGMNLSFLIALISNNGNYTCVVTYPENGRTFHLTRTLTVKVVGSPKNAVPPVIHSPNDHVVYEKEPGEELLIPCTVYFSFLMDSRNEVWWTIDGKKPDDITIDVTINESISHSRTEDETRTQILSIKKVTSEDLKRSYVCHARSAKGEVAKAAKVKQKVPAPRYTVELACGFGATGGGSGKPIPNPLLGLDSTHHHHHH
The assay can be described thus: SPR, IgG analyte (apparent), pH 7.4, 37 C.

In assay [5] the target is T3, cyno-M-IL1RAP construct, positions …. The assay can be described thus: SPR, against YKD.
In assay [6] the target is T4, hu-M-IL1RAP construct, positions …. The assay can be described thus: SPR, against YKD.
In assay [7] the target is T5, human IL1RAP (hu-IL1RAP) on human cells (human, UniProt Q9NPH3 21-570).
T5 sequence: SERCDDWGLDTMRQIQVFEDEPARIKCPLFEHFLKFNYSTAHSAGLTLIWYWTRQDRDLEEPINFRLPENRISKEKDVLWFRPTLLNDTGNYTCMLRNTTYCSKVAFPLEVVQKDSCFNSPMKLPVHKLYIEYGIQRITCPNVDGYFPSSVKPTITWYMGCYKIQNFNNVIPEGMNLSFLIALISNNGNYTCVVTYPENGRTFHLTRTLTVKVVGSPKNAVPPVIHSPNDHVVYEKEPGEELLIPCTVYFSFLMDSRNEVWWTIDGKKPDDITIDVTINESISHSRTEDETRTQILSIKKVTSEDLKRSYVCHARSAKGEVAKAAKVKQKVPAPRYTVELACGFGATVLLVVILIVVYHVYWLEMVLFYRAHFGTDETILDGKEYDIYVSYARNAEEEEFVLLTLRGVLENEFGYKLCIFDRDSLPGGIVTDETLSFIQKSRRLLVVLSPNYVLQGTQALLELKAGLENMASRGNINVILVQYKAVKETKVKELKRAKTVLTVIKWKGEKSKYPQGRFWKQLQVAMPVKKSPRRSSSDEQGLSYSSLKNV
The assay can be described thus: cell-based or functional assay.

The target in assay [8] is T3, cyno-M-IL1RAP construct, positions …. The assay can be described thus: SPR, against YIS.
In assay [9] the target is T4, hu-M-IL1RAP construct, positions …. The assay can be described thus: SPR, against YIS.
Assay [10] has the same target. The assay can be described thus: SPR, Fab against parent Fab.
Assay [11] shares this target. The assay can be described thus: SPR, Fab analyte, 25 C.
Assay [12] shares this target. The assay can be described thus: phage display selection of affinity maturation libraries + NGS; enrichment of the mutation Y30W (VL).
The target is the same in assay [13]. The assay can be described thus: phage display selection of affinity maturation libraries + NGS; enrichment of the mutation L33G (VL).
The target is the same in assay [14]. The assay can be described thus: phage display selection of affinity maturation libraries + NGS; enrichment of the mutation W92K (VL).

B1: h11C5 variant YKD/YTE (antibody, human IgG1, kappa, N297G)
heavy: EVQLVESGGGLVQPGGSLRLSCAASGFTFSNYAMSWVRQAPGKGLEWVATVTEGGDYNYYLDDVKGRFTISRDNAKNSLYLQMNSLRAEDTAVYYCARDDWPYFFDYWGQGTLVTVSSASTKGPSVFPLAPSSKSTSGGTAALGCLVKDYFPEPVTVSWNSGALTSGVHTFPAVLQSSGLYSLSSVVTVPSSSLGTQTYICNVNHKPSNTKVDKKVEPKSCDKTHTCPPCPAPELLGGPSVFLFPPKPKDTLYITREPEVTCVVVDVSHEDPEVKFNWYVDGVEVHNAKTKPREEQYGSTYRVVSVLTVLHQDWLNGKEYKCKVSNKALPAPIEKTISKAKGQPREPQVYTLPPSRDELTKNQVSLTCLVKGFYPSDIAVEWESNGQPENNYKTTPPVLDSDGSFFLYSKLTVDKSRWQQGNVFSCSVMHEALHNHYTQKSLSLSPGK
light: DIQMTQSPSSLSASVGDRVTITCRASENIYSNLAWYQQKPGKSPKLLVYGYKNLADGVPSRFSGSGSGTDYTLTISSLQPEDFATYYCQHFKTTPRTFGGGTKVEIKRTVAAPSVFIFPPSDEQLKSGTASVVCLLNNFYPREAKVQWKVDNALQSGNSQESVTEQDSKDSTYSLSSTLTLSKADYEKHKVYACEVTHQGLSSPVTKSFNRGEC
notes: YKD with M252Y/S254T/T256E (Eu index) in the Fc; N297G; also called 11C5-YKD/YTE; YKDNTE
In the case of B1, in assay [1], the Kd is 21.4 nM. In [2], this molecule came in with a Kd of 130 nM. Further, in [3], the Kd came out at 0.0219 nM, the dissociation rate constant (koff) came to 4.9e-05 s⁻¹ and the kon worked out at 2.24e+06 M⁻¹ s⁻¹. In addition, in assay [4], the Kd is 0.0254 nM, the off-rate constant (koff) came to 5.12e-05 s⁻¹ and the kon amounted to 2.02e+06 M⁻¹ s⁻¹. Also, the “KD YTE/KD Parental” value in [5] was found to be 0.98 ratio. For the same molecule, the “KD YTE/KD Parental” value in [6] is 0.84 ratio. Moreover, in [7], the “CD4+ T cells, IL-33+IL-12 stimulated IFN-γ, IC50” value came to 44 nM; the “HEK-Blue, IL-1β, IC50” value stood at 0.51 nM; the “HEK-Blue, IL-33, % inhibition at 100 nM” value was 97%; the “HEK-Blue, IL-33, IC50” value amounted to 3.3 nM. Further, in [7], the “HEK-Blue, IL-36β, IC50” value was found to be 0.9 nM; the “HEKn, IL-36β stimulated IL-8, IC50” value stood at 1.16 nM; the “NK cells, IL-33+IL-12 stimulated IFN-γ, IC50” value was 1.32 nM; the “PHLF, IL-1α stimulated IL-8, IC50” value was 6.47 nM. Moreover, in assay [7], the “PHLF, IL-36β stimulated IL-8, IC50” value was found to be 0.5 nM; the “basophils, IL-33 stimulated p38 phosphorylation, IC50” value is 41 nM; the “monocytes, IL-1β stimulated IL-6, IC50” value turned out to be 0.158 nM.

B2: h11C5 variant YIS/YTE (antibody, human IgG1, kappa, N297G)
heavy: EVQLVESGGGLVQPGGSLRLSCAASGFTFSNYAMSWVRQAPGKGLEWVATSTEGGDYNYYLDDVKGRFTISRDNAKNSLYLQMNSLRAEDTAVYYCARDRWPYFFDYWGQGTLVTVSSASTKGPSVFPLAPSSKSTSGGTAALGCLVKDYFPEPVTVSWNSGALTSGVHTFPAVLQSSGLYSLSSVVTVPSSSLGTQTYICNVNHKPSNTKVDKKVEPKSCDKTHTCPPCPAPELLGGPSVFLFPPKPKDTLYITREPEVTCVVVDVSHEDPEVKFNWYVDGVEVHNAKTKPREEQYGSTYRVVSVLTVLHQDWLNGKEYKCKVSNKALPAPIEKTISKAKGQPREPQVYTLPPSRDELTKNQVSLTCLVKGFYPSDIAVEWESNGQPENNYKTTPPVLDSDGSFFLYSKLTVDKSRWQQGNVFSCSVMHEALHNHYTQKSLSLSPGK
light: DIQMTQSPSSLSASVGDRVTITCRASENIYSNLAWYQQKPGKSPKLLVYGYKNLADGVPSRFSGSGSGTDYTLTISSLQPEDFATYYCQHFITTPRTFGGGTKVEIKRTVAAPSVFIFPPSDEQLKSGTASVVCLLNNFYPREAKVQWKVDNALQSGNSQESVTEQDSKDSTYSLSSTLTLSKADYEKHKVYACEVTHQGLSSPVTKSFNRGEC
notes: YIS with M252Y/S254T/T256E (Eu index) in the Fc; N297G; also called 11C5-YIS/YTE
On to B2, for which, in assay [8], the “KD YTE/KD Parental” value came to 0.69 ratio. Also, the “KD YTE/KD Parental” value in assay [9] turned out to be 0.99 ratio. For the same molecule, in assay [3], the Kd worked out at 0.00798 nM, the koff was 3.07e-05 s⁻¹ and the kon was determined as 3.85e+06 M⁻¹ s⁻¹. For the same molecule, in assay [4], the Kd was found to be 0.013 nM, the koff came to 4.43e-05 s⁻¹ and the kon stood at 3.42e+06 M⁻¹ s⁻¹.

B3: K1 Fab (VL Y30W) (Fab, V domains shown)
VH: EVQLVESGGGLVQPGGSLRLSCAASGFTFSNYAMSWVRQAPGKGLEWVATVTEGGDYNYYLDDVKGRFTISRDNAKNSLYLQMNSLRAEDTAVYYCARDRWPYFFDYWGQGTLVTVSS
VL: DIQMTQSPSSLSASVGDRVTITCRASENIWSNLAWYQQKPGKSPKLLVYGAKNLADGVPSRFSGSGSGTDYTLTISSLQPEDFATYYCQHFWTTPRTFGGGTKVEIK
notes: Fab with 8xHis tag
Take B3: in [10], the “Fold Improvement in KD @ 25° C.” value worked out at 9.06 fold. In assay [11], this molecule gave a Kd of 0.0372 nM, a koff of 0.00018 s⁻¹ and a kon of 4.82e+06 M⁻¹ s⁻¹. The “Enrichment ratio (at the highest selection stringency)” value in [12] amounted to 3.52 ratio.

B4: K2 Fab (VL L33G) (Fab, V domains shown)
VH: EVQLVESGGGLVQPGGSLRLSCAASGFTFSNYAMSWVRQAPGKGLEWVATVTEGGDYNYYLDDVKGRFTISRDNAKNSLYLQMNSLRAEDTAVYYCARDRWPYFFDYWGQGTLVTVSS
VL: DIQMTQSPSSLSASVGDRVTITCRASENIYSNGAWYQQKPGKSPKLLVYGAKNLADGVPSRFSGSGSGTDYTLTISSLQPEDFATYYCQHFWTTPRTFGGGTKVEIK
notes: Fab with 8xHis tag
B4: the “Enrichment ratio (at the highest selection stringency)” value in assay [13] was 1.71 ratio. For the same molecule, the “Fold Improvement in KD @ 25° C.” value in assay [10] stood at 9.74 fold. Moreover, in assay [11], the Kd came out at 0.0346 nM, the koff was found to be 0.000158 s⁻¹ and the kon came out at 4.57e+06 M⁻¹ s⁻¹.

B5: K3 Fab (VL W92K) (Fab, V domains shown)
VH: EVQLVESGGGLVQPGGSLRLSCAASGFTFSNYAMSWVRQAPGKGLEWVATVTEGGDYNYYLDDVKGRFTISRDNAKNSLYLQMNSLRAEDTAVYYCARDRWPYFFDYWGQGTLVTVSS
VL: DIQMTQSPSSLSASVGDRVTITCRASENIYSNLAWYQQKPGKSPKLLVYGAKNLADGVPSRFSGSGSGTDYTLTISSLQPEDFATYYCQHFKTTPRTFGGGTKVEIK
notes: Fab with 8xHis tag
Consider B5, for which, in assay [10], the “Fold Improvement in KD @ 25° C.” value turned out to be 6.44 fold. Also, in assay [14], the “Enrichment ratio (at the highest selection stringency)” value amounted to 3.31 ratio. In assay [11], this molecule displayed a Kd of 0.0523 nM, a koff of 0.000198 s⁻¹ and a kon of 3.78e+06 M⁻¹ s⁻¹.
